Test results from the supplement of paper PMC9112550, “Optimization of the antimicrobial peptide Bac7 by deep mutational scanning” (BMC Biology, 2022).

Each sequence was assayed on Escherichia coli TOP10 (assay: shrunken log2 fold change of peptide-encoding DNA abundance (4.5 h post-induction vs induction); higher = less antimicrobial activity (less host growth inhibition)). Conditions: time post-induction: 4.5 h; library: site-saturation at positions 5, 18, 19, 20.
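Also: peptides expressed intracellularly from a pBAD plasmid library in pooled LB shake-flask culture, induced with 0.3% L-arabinose, DNA abundance read by NGS, three biological replicates, DESeq2 with apeglm shrinkage.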

Which “shrunken log2 fold change” value does the source give for RRIRCRPPRLPRPRPRPYSSPRP here?
The value was 0.00688.

For RRIRFRPPRLPRPRPRPRPPPRP, which “shrunken log2 fold change” value is on record?
The value was 1.36.

With RRIRNRPPRLPRPRPRPFCTPRP as the sequence, how does the “shrunken log2 fold change” value read?
Its value is -0.351.

Which “shrunken log2 fold change” value does the source give for RRIRQRPPRLPRPRPRPWGPPRP here?
Its value is 0.0893.

Which “shrunken log2 fold change” value does the source give for RRIRVRPPRLPRPRPRPQAGPRP here?
Its value is 0.0465.

With RRIRCRPPRLPRPRPRPSKLPRP as the sequence, how does the “shrunken log2 fold change” value read?
The value was -0.674.

How did the “shrunken log2 fold change” value turn out when RRIRLRPPRLPRPRPRPPDNPRP was run?
Its value is 0.0299.

For RRIRSRPPRLPRPRPRPFTYPRP, which “shrunken log2 fold change” value is on record?
The value was -0.0179.

RRIRPRPPRLPRPRPRPERKPRP was tested. Which “shrunken log2 fold change” value did it give?
The value was 0.489.

How did the “shrunken log2 fold change” value turn out when RRIRQRPPRLPRPRPRPVHRPRP was run?
Its value is -0.0635.

How did the “shrunken log2 fold change” value turn out when RRIRFRPPRLPRPRPRPDDCPRP was run?
Its value is 0.014.

How did the “shrunken log2 fold change” value turn out when RRIRMRPPRLPRPRPRPLETPRP was run?
Its value is 2.02.

How did the “shrunken log2 fold change” value turn out when RRIRHRPPRLPRPRPRPPYSPRP was run?
The value was -0.418.

RRIRMRPPRLPRPRPRPHGGPRP was tested. Which “shrunken log2 fold change” value did it give?
Its value is -0.0492.

For RRIRHRPPRLPRPRPRPNSDPRP, which “shrunken log2 fold change” value is on record?
The value was -0.0908.

RRIRWRPPRLPRPRPRPLMDPRP was tested. Which “shrunken log2 fold change” value did it give?
The value was 0.185.

With RRIRWRPPRLPRPRPRPCHSPRP as the sequence, how does the “shrunken log2 fold change” value read?
The value was -0.286.

Which “shrunken log2 fold change” value does the source give for RRIRQRPPRLPRPRPRPGTTPRP here?
The value was 0.155.

How did the “shrunken log2 fold change” value turn out when RRIRHRPPRLPRPRPRPSYDPRP was run?
Its value is -0.0244.

Which “shrunken log2 fold change” value does the source give for RRIRVRPPRLPRPRPRPKARPRP here?
Its value is 0.295.

How did the “shrunken log2 fold change” value turn out when RRIRHRPPRLPRPRPRPWTMPRP was run?
The value was -0.344.

How did the “shrunken log2 fold change” value turn out when RRIRYRPPRLPRPRPRPFVNPRP was run?
Its value is 0.017.

Which “shrunken log2 fold change” value does the source give for RRIRGRPPRLPRPRPRPGRYPRP here?
Its value is -0.378.

With RRIRGRPPRLPRPRPRPEYRPRP as the sequence, how does the “shrunken log2 fold change” value read?
The value was 0.354.

For RRIRSRPPRLPRPRPRPNFMPRP, which “shrunken log2 fold change” value is on record?
The value was -0.43.

RRIRPRPPRLPRPRPRPKHFPRP was tested. Which “shrunken log2 fold change” value did it give?
The value was 0.328.

With RRIRYRPPRLPRPRPRPSPIPRP as the sequence, how does the “shrunken log2 fold change” value read?
The value was -1.06.

With RRIRLRPPRLPRPRPRPSPIPRP as the sequence, how does the “shrunken log2 fold change” value read?
The value was -0.0508.

RRIRSRPPRLPRPRPRPVYAPRP was tested. Which “shrunken log2 fold change” value did it give?
The value was 0.0491.

With RRIRLRPPRLPRPRPRPRFVPRP as the sequence, how does the “shrunken log2 fold change” value read?
Its value is 0.123.

With RRIRRRPPRLPRPRPRPYYEPRP as the sequence, how does the “shrunken log2 fold change” value read?
The value was -0.572.

Which “shrunken log2 fold change” value does the source give for RRIRTRPPRLPRPRPRPYAIPRP here?
The value was -0.000694.

For RRIRGRPPRLPRPRPRPETLPRP, which “shrunken log2 fold change” value is on record?
Its value is 1.37.

Which “shrunken log2 fold change” value does the source give for RRIRDRPPRLPRPRPRPNALPRP here?
The value was -0.0157.

For RRIRVRPPRLPRPRPRPMPQPRP, which “shrunken log2 fold change” value is on record?
Its value is 0.311.

For RRIRHRPPRLPRPRPRPVIMPRP, which “shrunken log2 fold change” value is on record?
The value was -1.

How did the “shrunken log2 fold change” value turn out when RRIRWRPPRLPRPRPRPWDHPRP was run?
The value was -0.0185.

For RRIRNRPPRLPRPRPRPVCRPRP, which “shrunken log2 fold change” value is on record?
The value was 0.0204.

For RRIRQRPPRLPRPRPRPQVGPRP, which “shrunken log2 fold change” value is on record?
Its value is 0.331.

With RRIRPRPPRLPRPRPRPTTNPRP as the sequence, how does the “shrunken log2 fold change” value read?
The value was 0.199.

With RRIRSRPPRLPRPRPRPPHNPRP as the sequence, how does the “shrunken log2 fold change” value read?
The value was -0.0338.

For RRIRPRPPRLPRPRPRPASWPRP, which “shrunken log2 fold change” value is on record?
Its value is 0.362.

RRIRHRPPRLPRPRPRPTIWPRP was tested. Which “shrunken log2 fold change” value did it give?
Its value is -0.284.

For RRIRQRPPRLPRPRPRPRIPPRP, which “shrunken log2 fold change” value is on record?
The value was 0.206.

With RRIRCRPPRLPRPRPRPCTAPRP as the sequence, how does the “shrunken log2 fold change” value read?
Its value is -0.361.

With RRIRERPPRLPRPRPRPKPCPRP as the sequence, how does the “shrunken log2 fold change” value read?
The value was 0.133.

With RRIRGRPPRLPRPRPRPADHPRP as the sequence, how does the “shrunken log2 fold change” value read?
Its value is 0.625.

Which “shrunken log2 fold change” value does the source give for RRIRHRPPRLPRPRPRPWFYPRP here?
The value was -0.244.

How did the “shrunken log2 fold change” value turn out when RRIRNRPPRLPRPRPRPGMVPRP was run?
Its value is -0.23.

For RRIRNRPPRLPRPRPRPDYKPRP, which “shrunken log2 fold change” value is on record?
The value was 0.0574.

How did the “shrunken log2 fold change” value turn out when RRIRRRPPRLPRPRPRPLPWPRP was run?
Its value is 0.057.

RRIRPRPPRLPRPRPRPVFDPRP was tested. Which “shrunken log2 fold change” value did it give?
The value was 0.342.

RRIRCRPPRLPRPRPRPWERPRP was tested. Which “shrunken log2 fold change” value did it give?
The value was -0.118.

Which “shrunken log2 fold change” value does the source give for RRIRNRPPRLPRPRPRPRAHPRP here?
The value was -0.0951.

For RRIRDRPPRLPRPRPRPNSVPRP, which “shrunken log2 fold change” value is on record?
Its value is -0.0426.

RRIRRRPPRLPRPRPRPGCHPRP was tested. Which “shrunken log2 fold change” value did it give?
The value was 0.119.

For RRIRKRPPRLPRPRPRPGEFPRP, which “shrunken log2 fold change” value is on record?
Its value is 0.242.

With RRIRCRPPRLPRPRPRPMTRPRP as the sequence, how does the “shrunken log2 fold change” value read?
Its value is -0.275.

For RRIRLRPPRLPRPRPRPYVQPRP, which “shrunken log2 fold change” value is on record?
The value was -0.144.

For RRIRHRPPRLPRPRPRPYSDPRP, which “shrunken log2 fold change” value is on record?
Its value is -1.17.

Which “shrunken log2 fold change” value does the source give for RRIRDRPPRLPRPRPRPTNNPRP here?
The value was 0.0553.

With RRIRTRPPRLPRPRPRPRAMPRP as the sequence, how does the “shrunken log2 fold change” value read?
The value was 0.41.

For RRIRFRPPRLPRPRPRPIQYPRP, which “shrunken log2 fold change” value is on record?
Its value is -0.451.

RRIRARPPRLPRPRPRPRMEPRP was tested. Which “shrunken log2 fold change” value did it give?
Its value is 0.539.

Which “shrunken log2 fold change” value does the source give for RRIRMRPPRLPRPRPRPPVMPRP here?
Its value is 0.616.

RRIRIRPPRLPRPRPRPYWFPRP was tested. Which “shrunken log2 fold change” value did it give?
The value was -0.112.

How did the “shrunken log2 fold change” value turn out when RRIRMRPPRLPRPRPRPQTYPRP was run?
The value was 0.144.

How did the “shrunken log2 fold change” value turn out when RRIRWRPPRLPRPRPRPYCGPRP was run?
Its value is -0.187.

With RRIRRRPPRLPRPRPRPTWTPRP as the sequence, how does the “shrunken log2 fold change” value read?
Its value is 0.464.

With RRIRARPPRLPRPRPRPMINPRP as the sequence, how does the “shrunken log2 fold change” value read?
Its value is -0.0176.

Which “shrunken log2 fold change” value does the source give for RRIRNRPPRLPRPRPRPWMRPRP here?
Its value is 0.311.

How did the “shrunken log2 fold change” value turn out when RRIRDRPPRLPRPRPRPPHSPRP was run?
Its value is 0.279.

RRIRMRPPRLPRPRPRPNPWPRP was tested. Which “shrunken log2 fold change” value did it give?
The value was 0.123.

With RRIRYRPPRLPRPRPRPAYYPRP as the sequence, how does the “shrunken log2 fold change” value read?
The value was -0.318.

RRIRVRPPRLPRPRPRPWGQPRP was tested. Which “shrunken log2 fold change” value did it give?
The value was -0.191.

Which “shrunken log2 fold change” value does the source give for RRIRARPPRLPRPRPRPIQHPRP here?
Its value is -0.132.

Which “shrunken log2 fold change” value does the source give for RRIRFRPPRLPRPRPRPWQKPRP here?
Its value is -0.097.

For RRIRRRPPRLPRPRPRPPWIPRP, which “shrunken log2 fold change” value is on record?
The value was 0.365.

For RRIRFRPPRLPRPRPRPHNNPRP, which “shrunken log2 fold change” value is on record?
The value was -0.638.

For RRIRSRPPRLPRPRPRPQDLPRP, which “shrunken log2 fold change” value is on record?
Its value is -0.0949.

With RRIRHRPPRLPRPRPRPIECPRP as the sequence, how does the “shrunken log2 fold change” value read?
Its value is 0.0039.

How did the “shrunken log2 fold change” value turn out when RRIRNRPPRLPRPRPRPWPCPRP was run?
Its value is -0.185.

How did the “shrunken log2 fold change” value turn out when RRIRERPPRLPRPRPRPATPPRP was run?
The value was 1.31.

For RRIRNRPPRLPRPRPRPPTAPRP, which “shrunken log2 fold change” value is on record?
Its value is 0.295.

How did the “shrunken log2 fold change” value turn out when RRIRPRPPRLPRPRPRPAYVPRP was run?
Its value is -0.241.

RRIRNRPPRLPRPRPRPRTKPRP was tested. Which “shrunken log2 fold change” value did it give?
The value was 0.123.

Which “shrunken log2 fold change” value does the source give for RRIRMRPPRLPRPRPRPPVQPRP here?
Its value is 0.378.

Which “shrunken log2 fold change” value does the source give for RRIRIRPPRLPRPRPRPQNNPRP here?
The value was -0.957.

For RRIRHRPPRLPRPRPRPEPGPRP, which “shrunken log2 fold change” value is on record?
The value was -0.044.

For RRIRIRPPRLPRPRPRPGCKPRP, which “shrunken log2 fold change” value is on record?
The value was -0.0374.

RRIRVRPPRLPRPRPRPCVVPRP was tested. Which “shrunken log2 fold change” value did it give?
The value was 0.0226.

For RRIRWRPPRLPRPRPRPNGWPRP, which “shrunken log2 fold change” value is on record?
The value was 0.185.

RRIRVRPPRLPRPRPRPDILPRP was tested. Which “shrunken log2 fold change” value did it give?
The value was 0.3.

RRIRFRPPRLPRPRPRPRLCPRP was tested. Which “shrunken log2 fold change” value did it give?
The value was 0.276.

For RRIRMRPPRLPRPRPRPNHRPRP, which “shrunken log2 fold change” value is on record?
Its value is -0.113.

RRIRCRPPRLPRPRPRPLWQPRP was tested. Which “shrunken log2 fold change” value did it give?
The value was -0.147.

Which “shrunken log2 fold change” value does the source give for RRIRPRPPRLPRPRPRPCNSPRP here?
The value was -0.276.

RRIRIRPPRLPRPRPRPQCAPRP was tested. Which “shrunken log2 fold change” value did it give?
The value was -0.272.

For RRIRRRPPRLPRPRPRPIYSPRP, which “shrunken log2 fold change” value is on record?
Its value is -0.159.

Which “shrunken log2 fold change” value does the source give for RRIRSRPPRLPRPRPRPLVMPRP here?
The value was -0.316.

With RRIRKRPPRLPRPRPRPFWWPRP as the sequence, how does the “shrunken log2 fold change” value read?
The value was 0.592.

RRIRSRPPRLPRPRPRPEVCPRP was tested. Which “shrunken log2 fold change” value did it give?
The value was 0.11.

Which “shrunken log2 fold change” value does the source give for RRIRTRPPRLPRPRPRPRWNPRP here?
The value was 0.969.

With RRIRNRPPRLPRPRPRPVFDPRP as the sequence, how does the “shrunken log2 fold change” value read?
Its value is -0.152.

How did the “shrunken log2 fold change” value turn out when RRIRDRPPRLPRPRPRPRADPRP was run?
Its value is 0.65.

With RRIRKRPPRLPRPRPRPSICPRP as the sequence, how does the “shrunken log2 fold change” value read?
The value was 0.242.

With RRIRNRPPRLPRPRPRPCNQPRP as the sequence, how does the “shrunken log2 fold change” value read?
Its value is 0.0223.

RRIRGRPPRLPRPRPRPFNDPRP was tested. Which “shrunken log2 fold change” value did it give?
Its value is -0.753.

With RRIRGRPPRLPRPRPRPVRNPRP as the sequence, how does the “shrunken log2 fold change” value read?
The value was 0.308.
